Data as given in patent US20260217833A1 (APTEVO RESEARCH AND DEVELOPMENT, published 2026).
Substitutions are numbered along the chain they refer to. One block for each binder: values may come before it.

Columns and labels:
human CD40 full-length = target: T1, human CD40 full-length (human, UniProt P25942 21-277); assay: flow cytometry, CHOK1SV/human CD40 cells
T1 construct: Also used for CD40 of Daudi cells, of CD40-expressing HEK293 cells and of the BPS CD40/NFkB HEK293 reporter cells where the row says so; also called CD4001012; CHOK1SV/CD40

Human PD-L1 full-length = target: T2, Human PD-L1 full-length (human, UniProt Q9NZQ7 19-290); assay: flow cytometry, CHOK1SV/human PD-L1 cells
T2 construct: also called PDL01021; CHOK1SV/huPDL1
T2 sequence (Q9NZQ7 19-290): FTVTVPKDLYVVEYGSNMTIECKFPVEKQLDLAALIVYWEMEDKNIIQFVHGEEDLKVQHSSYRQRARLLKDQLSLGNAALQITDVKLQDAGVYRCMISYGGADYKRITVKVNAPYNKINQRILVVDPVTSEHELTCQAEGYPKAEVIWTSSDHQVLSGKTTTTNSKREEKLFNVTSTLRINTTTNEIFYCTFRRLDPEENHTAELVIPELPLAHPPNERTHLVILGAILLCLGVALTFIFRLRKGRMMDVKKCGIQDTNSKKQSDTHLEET

T1 sequence (P25942 21-277): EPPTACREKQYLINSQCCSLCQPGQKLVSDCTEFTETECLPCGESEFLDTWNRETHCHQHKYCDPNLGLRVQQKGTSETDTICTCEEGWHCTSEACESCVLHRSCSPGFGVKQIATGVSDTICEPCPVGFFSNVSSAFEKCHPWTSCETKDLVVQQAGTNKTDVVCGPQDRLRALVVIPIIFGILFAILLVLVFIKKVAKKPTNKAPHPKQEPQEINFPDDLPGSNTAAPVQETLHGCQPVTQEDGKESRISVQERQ

binding result (human CD40 full-length): binds
B2: CD4001186 (Fc fusion)
scFv: DIQMTQSPSSVSASVGDRVTITCRSSQSLLFSVNQKNYLAWYQQKPGKAPKLLIYWASTRESGVPDRFSGSGSGTDFTLTISSLQPEDFATYYCQHYYSYPWTFGQGTKVEIKGGGGSGGGGSGGGGSGGGGSQVQLVQSGAEVKKPGSSVKVSCKASGYTFSTSWIEWIRQAPGQGLEWMGSILPGSGSTNYNEKFKGKVTITADTSTSTAYMELSSLRSEDTAVYYCARGDDGSYVRWYFDHWGQGTLVTVSS
notes: humanized 1D5 variant; not shown: wild-type human IgG1 Fc and the Fc-to-scFv linker

binding result (human CD40 full-length): binds
B3: CD4001207 (Fc fusion)
scFv: B2 scFv with N194A, T207E
notes: humanized 1D5 variant; not shown: wildtype human IgG1 Fc and its linker to the scFv

binding result (human CD40 full-length): binds
B5: CD4001203 (Fc fusion)
scFv: B2 scFv with E168S, I170V, S183G, N194A
notes: as for B3

binding result (human CD40 full-length): binds
B6: CD4001192 (Fc fusion)
scFv: B2 scFv with S25A, R60L, D66S, S158T, M181I, V201A, I203F
notes: humanized 1D5 variant; not shown: wild-type human IgG1 Fc and the Fc-scFv linker

binding result (human CD40 full-length): binds
B7: CD4001194 (Fc fusion)
scFv: B2 scFv with E168S, I170V, S183G
notes: as for B6

binding result (human CD40 full-length): binds
B10: CD4001190 (Fc fusion)
scFv: B2 scFv with S25A, T59S, E61Q, S158T, M181I, V201A, I203F
notes: as for B6

binding result (human CD40 full-length): binds
B13: CD4001204 (Fc fusion)
scFv: B2 scFv with E168S, I170V, S183G, E195Q, K198Q, K200R
notes: as for B3

binding result (human CD40 full-length): binds
B15: CD4001206 (Fc fusion)
scFv: B2 scFv with N194A, E195Q, K198Q, K200R
notes: as for B3

binding result (human CD40 full-length): binds
B16: CD4001191 (Fc fusion)
scFv: B2 scFv with T59S, R60L, E61Q, D66S, S158T, M181I, V201A, I203F
notes: as for B6

binding result (human CD40 full-length): no binding (tested: 300 nM)
B20: CD4001193 (Fc fusion)
scFv: B2 scFv with S25A, T59S, R60L, E61Q, D66S, S158T, M181I, V201A, I203F
notes: as for B6

binding result (human CD40 full-length): binds
B21: CD4001187 (Fc fusion)
scFv: B2 scFv with M181I, N194A, V201A, I203F
notes: as for B6

binding result (Human PD-L1 full-length): binds
B24: CD4001070 (bispecific antibody)
Fc-Knob x PDL_5F9: EPKSSDKTHTCPPCPAPPAAAPSVFLFPPKPKDTLMISRTPEVTCVVVDVSHEDPEVKFNWYVDGVEVHNAKTKPREEQYNSTYRVVSVLTVLHQDWLNGKEYKCAVSNKALPAPIEKTISKAKGQPREPQVYTLPPSRDELTKNQVSLWCLVKGFYPSDIAVEWESNGQPENNYKTTPPVLDSDGSFFLYSKLTVDKSRWQQGNVFSCSVMHEALHNHYTQKSLSLSPGGGGSPSEVQLVESGGGLVKPGGSLRLSCAASGFTFSDYGMAWVRQAPGKGLEWVAFITSLAYIIYYADSVKGRFTISRDNAKNSLYLQMNSLRAEDTAVYYCARNYGSSPYYFDYWGQGTLVTVSSGGGGSGGGGSGGGGSGGGGSDIQMTQSPSSLSASVGDRVTITCRASQDINKFLSWYQQKPGKAPKLLIHYTSSLQPGVPSRFSGSGSGTDFTLTISSLQPEDFATYYCLQYDNLYTFGQGTKLEIK
CD40_2H7 x Fc-Hole x PDL_5F9: DIVMTQSHKFMSTSVGDRVSITCKASQDVNTAVAWYQQKPGQSPKLLIYSASYRYTGVPDRFTGSGSGTDFTFTISSVQAEDLAVYYCQQHYSTPWTFGGGTKLEIKGGGGSGGGGSGGGGSGGGGSQVQLQQSGAELAKPGASVKMSCKASGYAFTTYWMHWVKQRPGQGLEWIGYINPTTGYTDYNQKFKDKATLTADKSSSTAYMQLSSLTSEDSAVYYCARWGLPPFAYWGQGTLVTVSAEPKSSDKTHTCPPCPAPPAAAPSVFLFPPKPKDTLMISRTPEVTCVVVDVSHEDPEVKFNWYVDGVEVHNAKTKPREEQYNSTYRVVSVLTVLHQDWLNGKEYKCAVSNKALPAPIEKTISKAKGQPREPQVYTLPPSRDELTKNQVSLSCAVKGFYPSDIAVEWESNGQPENNYKTTPPVLDSDGSFFLVSKLTVDKSRWQQGNVFSCSVMHEALHNRFTQKSLSLSPGGGGSPSEVQLVESGGGLVKPGGSLRLSCAASGFTFSDYGMAWVRQAPGKGLEWVAFITSLAYIIYYADSVKGRFTISRDNAKNSLYLQMNSLRAEDTAVYYCARNYGSSPYYFDYWGQGTLVTVSSGGGGSGGGGSGGGGSGGGGSDIQMTQSPSSLSASVGDRVTITCRASQDINKFLSWYQQKPGKAPKLLIHYTSSLQPGVPSRFSGSGSGTDFTLTISSLQPEDFATYYCLQYDNLYTFGQGTKLEIK

binding result (Human PD-L1 full-length): binds
B25: CD4001079 (bispecific antibody)
Fc-Knob x CD40_2H7: EPKSSDKTHTCPPCPAPPAAAPSVFLFPPKPKDTLMISRTPEVTCVVVDVSHEDPEVKFNWYVDGVEVHNAKTKPREEQYNSTYRVVSVLTVLHQDWLNGKEYKCAVSNKALPAPIEKTISKAKGQPREPQVYTLPPSRDELTKNQVSLWCLVKGFYPSDIAVEWESNGQPENNYKTTPPVLDSDGSFFLYSKLTVDKSRWQQGNVFSCSVMHEALHNHYTQKSLSLSPGGGGSPSDIVMTQSHKFMSTSVGDRVSITCKASQDVNTAVAWYQQKPGQSPKLLIYSASYRYTGVPDRFTGSGSGTDFTFTISSVQAEDLAVYYCQQHYSTPWTFGGGTKLEIKGGGGSGGGGSGGGGSGGGGSQVQLQQSGAELAKPGASVKMSCKASGYAFTTYWMHWVKQRPGQGLEWIGYINPTTGYTDYNQKFKDKATLTADKSSSTAYMQLSSLTSEDSAVYYCARWGLPPFAYWGQGTLVTVSA
PDL_5F9 x Fc-Hole x CD40_2H7: EVQLVESGGGLVKPGGSLRLSCAASGFTFSDYGMAWVRQAPGKGLEWVAFITSLAYIIYYADSVKGRFTISRDNAKNSLYLQMNSLRAEDTAVYYCARNYGSSPYYFDYWGQGTLVTVSSGGGGSGGGGSGGGGSGGGGSDIQMTQSPSSLSASVGDRVTITCRASQDINKFLSWYQQKPGKAPKLLIHYTSSLQPGVPSRFSGSGSGTDFTLTISSLQPEDFATYYCLQYDNLYTFGQGTKLEIKEPKSSDKTHTCPPCPAPPAAAPSVFLFPPKPKDTLMISRTPEVTCVVVDVSHEDPEVKFNWYVDGVEVHNAKTKPREEQYNSTYRVVSVLTVLHQDWLNGKEYKCAVSNKALPAPIEKTISKAKGQPREPQVYTLPPSRDELTKNQVSLSCAVKGFYPSDIAVEWESNGQPENNYKTTPPVLDSDGSFFLVSKLTVDKSRWQQGNVFSCSVMHEALHNRFTQKSLSLSPGGGGSPSDIVMTQSHKFMSTSVGDRVSITCKASQDVNTAVAWYQQKPGQSPKLLIYSASYRYTGVPDRFTGSGSGTDFTFTISSVQAEDLAVYYCQQHYSTPWTFGGGTKLEIKGGGGSGGGGSGGGGSGGGGSQVQLQQSGAELAKPGASVKMSCKASGYAFTTYWMHWVKQRPGQGLEWIGYINPTTGYTDYNQKFKDKATLTADKSSSTAYMQLSSLTSEDSAVYYCARWGLPPFAYWGQGTLVTVSA

Second part, the binder before the results:

B1: CD4001184 (Fc fusion)
scFv: B2 scFv with M181I, V201A, I203F
notes: as for B2
binding result (human CD40 full-length): binds

B4: CD4001199 (Fc fusion)
scFv: B2 scFv with E195Q, K198Q, K200R
notes: as for B3
binding result (human CD40 full-length): binds

B8: CD4001205 (Fc fusion)
scFv: B2 scFv with E168S, I170V, S183G, T207E
notes: as for B3
binding result (human CD40 full-length): binds

B9: CD4001183 (Fc fusion)
scFv: B2 scFv with R60L, D66S, S158T, M181I, V201A, I203F
notes: as for B2
binding result (human CD40 full-length): binds

B11: CD4001181 (Fc fusion)
scFv: B2 scFv with S25A, S158T, M181I, V201A, I203F
notes: as for B2
binding result (human CD40 full-length): binds

B12: CD4001185 (Fc fusion)
scFv: B2 scFv with E168S, I170V, M181I, S183G, V201A, I203F
notes: as for B2
binding result (human CD40 full-length): binds

B14: CD4001182 (Fc fusion)
scFv: B2 scFv with T59S, E61Q, S158T, M181I, V201A, I203F
notes: as for B2
binding result (human CD40 full-length): binds

B17: CD4001201 (Fc fusion)
scFv: B2 scFv with M181I, N194A, V201A, I203F, T207E
notes: as for B3
binding result (human CD40 full-length): binds

B18: CD4001195 (Fc fusion)
scFv: B2 scFv with E168S, I170V, M181I, S183G, N194A, V201A, I203F
notes: as for B6
binding result (human CD40 full-length): binds

B19: CD4001197 (Fc fusion)
scFv: B2 scFv with E168S, I170V, M181I, S183G, V201A, I203F, T207E
notes: as for B3
binding result (human CD40 full-length): binds

B22: CD4001196 (Fc fusion)
scFv: B2 scFv with E168S, I170V, M181I, S183G, E195Q, K198Q, K200R, V201A, I203F
notes: as for B6
binding result (human CD40 full-length): binds

B23: CD4001047 (bispecific antibody)
scFv-Fc-scFv chain: B24 CD40_2H7 x Fc-Hole x PDL_5F9 with S394T, A396L, V435Y, R463H, F464Y
notes: also called CD40_2H7 x hFc x PDL_5F9
binding result (Human PD-L1 full-length): binds
